# Test: yeast display, Sf9 membrane polyspecificity reagent, FACS + sequencing; frameworks hold sequencing errors
# Procedure, shortened: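 A nanobody's polyreactivity label depends on the gate it was sorted from. Yeast display cells were stained with 10% biotinylated, detergent-solubilized Sf9 membrane reagent for 1 hour at 4 °C, enriched on streptavidin microbeads and sorted by FACS. The low and high (top ~1%) gates were set on anti-HA fluorescence for expression and streptavidin fluorescence for reagent binding.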
row,Sequence,polyreactivity (PSR sort gate)
1,QVQLVESGGGLVQAGGSLRLSCAASGFTFTNYVMGWYRQAPGKETELVAAIRRSGDSTYYADSVKGRFTISRDNAKNTVYLQMNSLKPEATAVYYCNAVAYGRTYDYWGQGTQVTVSS,high polyreactivity
2,QVQLVESGGGLVQAGGSLRLSCAASGFTFTRYAMGWYRQAPGKERELVAAISSRGGSTNYADSVKGRFTISRDNAKNTVYLQMNSLKPEDTAVYYCAAEYYRLRYEYDYWGQGTQVTVSS,high polyreactivity
3,QVQLVESGGGLVQAGGSLRLSCAASGFTFTRYAMGWYRQAPGKERELVAAISWNSGSTYYADSVKGRFTISRDNAKNTVYLQMNSLKPEDTAVYYCAAAFLRVYYGYTGAFDYWGQGTQVTVSS,high polyreactivity
4,QVQLVESGGGLVQAGGSLRLSCAASGFTFTSYVMGWYRQAPGKEREFVAAITRSAGGTYYADSVKGRFTISRDNAQNTFYLQINSLKPEDTAVYYCAAEYYVPGGGAYRGDYWGQGTQVTGSS,high polyreactivity
5,QVQLVESGGGLVQAGGSLRLSCAASGFTFTWYAMGWYRPAPGKERELVAAISSGGGRTYYADSVKGRFTISRDNAKNTVYLQMNSLKPEDTAVYYCNKVSSFGYYYWGQGTQVTVSS,high polyreactivity
6,QVQLVESGGGLVQAGGSLRLSCAASGFTFTWYAMGWYRQAPGKERELVATISRSGGRTYYADSVKGRFTISRDNAKNPVYLQMNSLKPEVTAVYYCAADTRNYPRYDYWGQGTQVTVSS,high polyreactivity
7,QVQLVESGGGLVQAGGSLRLSCAASGFTFTWYAMGWYRQAPGKERELVATISRSGGRTYYADSVKGRFTISRDNAKNTVYLQMNSLKPEDTAVYYCAADTRNYPRYDYWGQGTQVTVSS,high polyreactivity
8,QVQLVESGGGLVQAGGSLRLSCAASGFTFTYNAMGWYRQAPGKERELVAAITANGGGTNYADSVKGRFTISRDNEKNTVYLQMNSLKPEDTAVYYCAATIVVAVFESLGFYWYTEDNYWGQGTQVTVSS,low polyreactivity
9,QVQLVESGGGLVQAGGSLRLSCAASGFTFTYNAMGWYRQAPGKERELVAAITLSGGSTYADSVKGRFTISRDNAKNTVYLQMNSLKPEDTAVYYCNADAGVYSANATDGYDYWGQGTQVTVSS,low polyreactivity
10,QVQLVESGGGLVQAGGSLRLSCAASGFTFTYYAMGWYRQAPGKERELVAAITKSGGSTYYADSVKGRFTISRDNAKNTVYFQMNSLKPEDTAVYYCAADTRYGRERYYWGQGTQVTVSS,high polyreactivity
11,QVQLVESGGGLVQAGGSLRLSCAASGFTFTYYTMGWYRQAPGKERELVAAISWSGSSTYYADSVKGRFTISRDNAKNTVYLQMNSLKPEDTAVYYCAAKYRGKYYYWGQGTQVTVSS,high polyreactivity
12,QVQLVESGGGLVQAGGSLRLSCAASGFTFVAYAMGWYRQAPGKERELVAALRRTGGSSSYADSVKGRFTISRDIAKNTVYLQMNRLKPEDTSVYYCNKVRLISGVYWSYQAFGYWGQGTQVTVSS,high polyreactivity
13,QVQLVESGGGLVQAGGSLRLSCAASGFTFVEYAMGWYRQAPGKERELVASIRRSGGRTYYADSVKGRFTISRDNAKNTVYLQMNSLKPEDTAVYYCAKSVPRYYSKSGLAYEFDYWGQGTQVTVSS,low polyreactivity
14,QVQLVESGGGLVQAGGSLRLSCAASGFTFVFYAMGWYRQAPGKERELVAGISRTGGSTYYADSVKGRFTISRDNAKNTVYLQMNSLKPEDTAVYYCNAARFTRRDYWGQGTQVTVSS,high polyreactivity
15,QVQLVESGGGLVQAGGSLRLSCAASGFTFVGNAMGWYRQAPGKERELVATITSGGNTKYADSVKGRFTISRDNAKNTVYLQMNSLKPEDTAVYYCAAAKYNYRRFNSWGQGTQVTVSS,low polyreactivity
16,QVQLVESGGGLVQAGGSLRLSCAASGFTFVINDMGWYRQAPGKERELVADITSGGDTYYADSVKGRFTISRDNAKNTVYLQLNSLKPEDTAVYYCAADIYPDWIYLLYGYWGQGTQVTVSS,low polyreactivity
17,QVQLVESGGGLVQAGGSLRLSCAASGFTFVNYVMGWYRQAPGKERELVAAISRSGGSTYYADSVKGRFTISRDNAKNTVYLQMNSLKPEDTAVYYCAARWFYRAGFNYWGQGTQVTVSS,high polyreactivity
18,QVQLVESGGGLVQAGGSLRLSCAASGFTFVPYAMGWYIQAPGKERELVAAISSRGDSTYYADSVKGRFTISRDNAKNTVYLQMNSLKPEDTAVYYCNARTTPHMDYWGQGTQVTVSS,low polyreactivity
19,QVQLVESGGGLVQAGGSLRLSCAASGFTFVPYAMGWYRQAPGKERELVAAISYSGGSRYYADSVKGRFTISRDNAKNTVYLQMNSLKPEDTAVYYCAALRWYHYGYWGQGTQVTVSA,high polyreactivity
20,QVQLVESGGGLVQAGGSLRLSCAASGFTFVQYAMGWYRQAPGKERELVATISKSGGITYYADSVKGRFKISRDYAKNTVYLQMNSLKPEDTAVYYCAASWYYSSRGFHATWGHDYWGQGTQVTVSS,low polyreactivity
21,QVQLVESGGGLVQAGGSLRLSCAASGFTFVRNAMGWYRQAPGKEREFVAAITWTGGSTSYADSVKGRFTISRDNAMITVYLQMNSLKPEDTAVYYCDAVGYGYGFEYWGQGTQVTVSA,high polyreactivity
22,QVQLVESGGGLVQAGGSLRLSCAASGFTFVRYAMGWYRQAPGKEREFVAGITRSGGSTYYADSVKGRFTISRDNAKNTVYLQMNSLKPEDTAVYYCNRAYYSYHDQPYEYWGQGTQVSVSS,high polyreactivity

row,Sequence,polyreactivity (PSR sort gate)
1,QVQLVESGGGLVQAGGSLRLSCAASGFTFVRYAMGWYRQAPGKERELVAAISSSGSSTYYADSVKGRFTISRDPVKNTVYLQMNSLIPEDTAVYYFNARAGGGEDYWGQGTQVTVSS,low polyreactivity
2,QVQLVESGGGLVQAGGSLRLSCAASGFTFVRYAMGWYRQAPGKERELVAGISRRGGSTYYADSVKGRFTISRDNAKNTVYLQMNSLKPEDTAVYYCAAKPIYYSRGYYWGQGTQVTVSS,high polyreactivity
3,QVQLVESGGGLVQAGGSLRLSCAASGFTFVRYTMGWYRKAPGKERELVAAITASGDRTYYADSVKGRFTISRDNAKNTVYLQMNSLKPEDTAVYYCAKEYWGVTPTYYYWGQGTQVTVSS,high polyreactivity
4,QVQLVESGGGLVQAGGSLRLSCAASGFTFVRYTMGWYRQAPGKERELVAAITASGDRTYYADSVKGRFTISRDNAKNTVYLQMNSLKPEDTAVYYCAARVWRTVTRSKYGYWGQGTQVTVSS,high polyreactivity
5,QVQLVESGGGLVQAGGSLRLSCAASGFTFVSYAMGWSRQAPGKERELVAVISKSGSRTSYAESVKGRFTISRDNAKNTVYLQMNSLKPEDTAVYYCAVYYTRIGPRYDYWGQGTQVTVSS,high polyreactivity
6,QVQLVESGGGLVQAGGSLRLSCAASGFTFVSYAMGWYRQAPGKERELVASITWTGGSTYYADSVKGRFTISRDNAKNTVYLQMNSLKPEDTAVYYGAAQQFYSGILGRYYWGQGTQVTVSS,low polyreactivity
7,QVQLVESGGGLVQAGGSLRLSCAASGFTFVTNAMGWYRQAPGKERELVAAISSSGARTYYADSVKGRFTISRDNAKNTVYLQMNSLKPEDTAVYYCAVYYYDFTSTEYGYWGQGTQVTVSS,high polyreactivity
8,QVQLVESGGGLVQAGGSLRLSCAASGFTFVVYAMGWYRQAPGKERELVAAISARGGRTYYADSVKGRFTISRDNAKNTVYLQMNSLKPEDTAVYYCAATNQRQTRYDYWGQGTQVTVSS,high polyreactivity
9,QVQLVESGGGLVQAGGSLRLSCAASGFTFVYNAMGWYRQAPGKERELVAAITSGGNTYYADSVKGRFTISRDNAKNTVYLQMNSLKPEDTAVYYCAKRGYVRYYAYDYWGQGTQVTVSS,high polyreactivity
10,QVQLVESGGGLVQAGGSLRLSCAASGFTFVYNAMGWYRQAPGKERELVAAITSGGNTYYADSVKGRFTISRDNAKNTVYLQMNSLKPEDTAVYYCAKVQNGQWSTSRVPGDYQYNYWGQGTQVTVSS,high polyreactivity
11,QVQLVESGGGLVQAGGSLRLSCAASGFTFVYYAMGWYRQAPGKERELVAAISSGGRTYYADSVKGRFTISRDNAKNTVYLQMNSLKPEDTAGYYCNKKVGSYYRSYYYWGQGTQVTVSS,high polyreactivity
12,QVQLVESGGGLVQAGGSLRLSCAASGFTFVYYAMVWYRQAPGKERELVAAISRSGGSTYYADSVKGRFTISRDNAKNTVYLQMNSLKPEDTAVYYCAADIVARYPYDYAMYYWGQGTQVTVSS,high polyreactivity
13,QVQLVESGGGLVQAGGSLRLSCAASGFTFVYYNMGWYRQAPGKERELVAAITQSGGRTYYADSVKGRFTISRDNAKNTVYLQMNCLKPEDTAVYYCAARLWGKRDYRMDYWGQGSQVTVSS,high polyreactivity
14,QVQLVESGGGLVQAGGSLRLSCAASGFTFVYYVMGWYRQAPGKERELVAAIRSGDGNTHYADTEKGRFTISRDNAKNTVYLQMNSLKPEDTAVYYCAASSRTFGYKYFYWGQGTQVTVSS,high polyreactivity
15,QVQLVESGGGLVQAGGSLRLSCAASGFTFWDYAMGWYRQAPGKESELVAAISDNDGSTDYADYVKGRFTISRDNAKNTVYLPMNSLKPEDTAVYYCNGEIELPSKEGDYWGQGTQVTVSS,low polyreactivity
16,QVQLVESGGGLVQAGGSLRLSCAASGFTFWFNAMGWYRQAPGKEREFVATISYSGASTYYADSVKGRFTISRDNAKNTVYLQMNSLKPEDTAVYYCAAANYDFYAFDSTYRYNYWGQGTQVTVSS,low polyreactivity
17,QVQLVESGGGLVQAGGSLRLSCAASGFTFWFYAMGWYRQAPGKERELVAAISWDGSRTYYADSVKGRFTISRDHAKNTVYLQMNSLKPEDTAVYYCAAESEDSNYNYWGQGTQVTVSS,high polyreactivity
18,QVQLVESGGGLVQAGGSLRLSCAASGFTFWGYGMGWYRQAPGKERELVAAISGSGGSTYYADSVKGRFTISRDNAKNTVYLQMNSLKPEDTAVYYCNKATQFYQWGASPYYPRRDYWGQGTQVTVSS,low polyreactivity
19,QVQLVESGGGLVQAGGSLRLSCAASGFTFWLYAMGCYRQAPGKEREFVAAISTSGGSTYADSVKGRFTISRDNAKNTVYLQMNSLKPEDTAVYYCNAGYLLYYDYHLFYWGQGTQVTVSS,low polyreactivity
20,QVQLVESGGGLVQAGGSLRLSCAASGFTFWLYAMGSYRQAPGKEREFVAAISTSGGYTYADSVKGRFTISRDNAKNTVYLQMNSLKPEDTAVYYCAVDGLPPKDALHLYYYWGQGTQVTVSS,low polyreactivity
21,QVQLVESGGGLVQAGGSLRLSCAASGFTFWNNAMGWYRQAPGKERELVAAISWSGGSTYYADSVKGRFTISRDNAKNTFDLQMNRLKPEDSAVYYCAAGDGPWLPRVHYGGYGYWGQGTQVTVSS,high polyreactivity
